Consider 15 molecules from US20230106247A1 (L AND L BIO CO LTD NINGBO CHINA, published 2023).

One assay addresses T1, human Sirpα-V1-hFc (human, UniProt P78324 31-373).
T1 construct: range 31-373; also called hSirpα (dimer); hSirpα-V1-hFc (dimer); not shown: human IgG1 Fc region at the C-terminus
Briefly: blocking ELISA, competitor CD47-his. On the procedure:
(§1) The recombinant proteins such as human Sirpα-V1-hFc/Sirpα-V1-his were diluted to concentrations of 5 μg/mL or 2 μg/mL respectively with a PBS buffer at pH 7.4, and then added into a 96-well ELISA plate (Corning, CLS3590-100EA) at a volume of 50 μL/well, and placed in an incubator at 37° C. for 2 hours. After the liquid was discarded, the wells were added with a blocking solution of 5% skimmed milk (skimmed milk powder available from Bright Dairy) diluted with PBS at 230 μL/well, and incubated in an incubator at 37° C. for 3 hours, or placed overnight at 4° C. (for 16-18 hours) for blocking. […] The plate was washed for 5 times, added with 50 μL/well of streptavidin-HRP (GenScript, M00091) or anti-his-HRP secondary antibody (GenScript, A00612) diluted at 1:1000, incubated at 37° C. for 1 hour, and then washed with PBST for 5 times. Each well was added with 50 μL of TMB (Surmodic, Cat #: TTMB-1000-01) for color development, and added with 50 μL/well of 1 M H₂SO₄ to stop the reaction. The readings on a microplate reader (MultiskanGO Thermo, Model 51119200) were subjected to data analysis by GraphPad prism 5.
(In an ELISA, binding on a coated surface is turned into a signal by an enzyme label.)

Assay [1] concerns the target T2, human Sirpα-V1-his (human, UniProt P78324 31-373).
T2 construct: range 31-373; Bought (Sino Biological 11612-H08H) or expressed in-house; also called hSirpα-V1; hSirpα-V1-his
Briefly: ELISA.

For assay [2], the target named is T2, human Sirpα-V1-his. Briefly: blocking ELISA, competitor CD47-hFc. On the procedure:
as §1

B1: humanized antibody mab14-h14 (antibody, human IgG4 S228P, kappa, V domains shown)
VH: QVQLVQSGAEVKKPGASVKVSCKASGYNFNIYWINWVRQAPGQGLEWIGNIYPSSISTNYNEKFKTRATLTVDKSTSTVYMELSSLRSEDTAVYYCARSEGTYYGGRYEGDWFGYWGQGTLVTVSS
VL: DIQMTQSPSSLSASVGDRVTITCRASQDIRNYLNWYQQKPGGTPKLLIYFTSTLHSGVPSRFSGSGSGTDYTLTISSLQPEDFATYYCQQGNTLPWTFGGGTKVEIKR
notes: hIgG4, κ
For orientation: IC50 means the midpoint of a concentration-inhibition curve. A high value points to weaker potency. Usually EC50 stands for the concentration giving half of the maximal effect. High values mean weaker potency, low ones greater potency. Turning to B1, the figures for the IC50 in the assay with human Sirpα-V1-hFc and with human Sirpα-V1-his [2] were 4.75 nM and 9.1 nM, respectively. This molecule registered an EC50 in the assay with human Sirpα-V1-his [1] of 0.057 nM.

B2: humanized antibody mab14-h11 (antibody, human IgG4 S228P, kappa, V domains shown)
VH: QVQLVQSGAEVKKPGASVKVSCKASGYNFNIYWINWVKQAPGQGLEWIGNIYPSSISTNYNEKFKTKATLTVDKSTSTVYMEFSSLRSEDTAVYYCARSEGTYYGGRYEGDWFGYWGQGTLVTVSS
VL: DIQMTQSPSSLSASVGDRVTITCRASQDIRNYLNWYQQKPGKTPKLLIYFTSTLHSGVPSRFSGSGSGTDYTLTISSLQPEDFATYYCQQGNTLPWTFGGGTKVEIKR
notes: hIgG4, κ
Regarding B2, in the assay with human Sirpα-V1-his [1], the EC50 came out at 0.073 nM.

B3: humanized antibody mab14-h10 (antibody, human IgG4 S228P, kappa, V domains shown)
VH: QVQLVQSGAEVKKPGASVKVSCKASGYNFNIYWINWVKQAPGQGLEWIGNIYPSSISTNYNEKFKTKATLTVDKSTSTVYMEFSSLRSEDTAVYYCARSEGTYYGGRYEGDWFGYWGQGTLVTVSS
VL: DIQMTQSPSSLSASVGDRVTITCRASQDIRNYLNWYQQKPGGTPKLLIYFTSTLHSGVPSRFSGSGSGTDYTLTISSLQPEDFATYYCQQGNTLPWTFGGGTKVEIKR
notes: hIgG4, κ
Regarding B3, in the assay with human Sirpα-V1-his [1], the concentration giving a half-maximal response (EC50) turned out to be 0.068 nM.

B4: humanized antibody mab14-h15 (antibody, human IgG4 S228P, kappa, V domains shown)
VH: QVQLVQSGAEVKKPGASVKVSCKASGYNFNIYWINWVRQAPGQGLEWIGNIYPSSISTNYNEKFKTRATLTVDKSTSTVYMELSSLRSEDTAVYYCARSEGTYYGGRYEGDWFGYWGQGTLVTVSS
VL: DIQMTQSPSSLSASVGDRVTITCRASQDIRNYLNWYQQKPGKTPKLLIYFTSTLHSGVPSRFSGSGSGTDYTLTISSLQPEDFATYYCQQGNTLPWTFGGGTKVEIKR
notes: hIgG4, κ
As to B4, the IC50 with human Sirpα-V1-hFc worked out at 5.13 nM; with human Sirpα-V1-his [2], 7.37 nM. For the same molecule, it took 0.077 nM to reach a half-maximal effect with human Sirpα-V1-his [1] (EC50).

B5: humanized antibody mab14-h13 (antibody, human IgG4 S228P, kappa, V domains shown)
VH: QVQLVQSGAEVKKPGASVKVSCKASGYNFNIYWINWVRQAPGQGLEWIGNIYPSSISTNYNEKFKTRATLTVDKSTSTVYMELSSLRSEDTAVYYCARSEGTYYGGRYEGDWFGYWGQGTLVTVSS
VL: DIQMTQSPSSLSASVGDRVTITCRASQDIRNYLNWYQQKPGGAPKLLIYFTSTLHSGVPSRFSGSGSGTDYTLTISSLQPEDFATYYCQQGNTLPWTFGGGTKVEIKR
notes: hIgG4, κ
B5: the half-maximal inhibitory concentration (IC50) worked out at 5.31 nM in the assay with human Sirpα-V1-hFc and 9.56 nM with human Sirpα-V1-his [2]. In the assay with human Sirpα-V1-his [1], this molecule registered an EC50 of 0.089 nM.

B6: humanized antibody mab14-h8 (antibody, human IgG4 S228P, kappa, V domains shown)
VH: QVQLVQSGAEVKKPGASVKVSCKASGYNFNIYWINWVKQAPGQGLEWIGNIYPSSISTNYNEKFKTKATLTVDKSTSTVYMEFSSLRSEDTAVYYCARSEGTYYGGRYEGDWFGYWGQGTLVTVSS
VL: DIQMTQSPSSLSASVGDRVTITCRASQDIRNYLNWYQQKPGGTPKLLIYFTSTLHSGVPSRFSGSGSGTDFTLTISSLQPEDFATYYCQQGNTLPWTFGGGTKVEIKR
notes: hIgG4, κ
In turn, B6 returned an EC50 with human Sirpα-V1-his [1] of 0.067 nM.

B7: humanized antibody mab14-h2 (antibody, human IgG4 S228P, kappa, V domains shown)
VH: QVQLVQSGAEVKKPGASVKVSCKASGYNFNIYWINWVKQAPGQGLEWIGNIYPSSISTNYNEKFKTKATLTVDKSTSTVYMEFSSLRSEDTAVYYCARSEGTYYGGRYEGDWFGYWGQGTLVTVSS
VL: DIQMTQSPSSLSASVGDRVTITCRASQDIRNYLNWYQQKPGGTVKLLIYFTSTLHSGVPSRFSGSGSGTDYTLTISSLQPEDFATYYCQQGNTLPWTFGGGTKVEIKR
notes: hIgG4, κ
As for B7, the EC50 with human Sirpα-V1-his [1] came out at 0.073 nM.

B8: humanized antibody mab14-h1 (antibody, human IgG4 S228P, kappa, V domains shown)
VH: QVQLVQSGAEVKKPGASVKVSCKASGYNFNIYWINWVRQAPGQGLEWMGNIYPSSISTNYNEKFKTRVTMTRDTSTSTVYMELSSLRSEDTAVYYCARSEGTYYGGRYEGDWFGYWGQGTLVTVSS
VL: DIQMTQSPSSLSASVGDRVTITCRASQDIRNYLNWYQQKPGKAPKLLIYFTSTLHSGVPSRFSGSGSGTDFTLTISSLQPEDFATYYCQQGNTLPWTFGGGTKVEIKR
notes: hIgG4, κ
The molecule B8 showed an EC50 in the assay with human Sirpα-V1-his [1] of 0.148 nM. This EC50 is about 2-fold higher than that of the molecule before.

B9: humanized antibody mab14-h9 (antibody, human IgG4 S228P, kappa, V domains shown)
VH: QVQLVQSGAEVKKPGASVKVSCKASGYNFNIYWINWVKQAPGQGLEWIGNIYPSSISTNYNEKFKTKATLTVDKSTSTVYMEFSSLRSEDTAVYYCARSEGTYYGGRYEGDWFGYWGQGTLVTVSS
VL: DIQMTQSPSSLSASVGDRVTITCRASQDIRNYLNWYQQKPGGAPKLLIYFTSTLHSGVPSRFSGSGSGTDYTLTISSLQPEDFATYYCQQGNTLPWTFGGGTKVEIKR
notes: hIgG4, κ
As to B9, a half-maximal effect in the assay with human Sirpα-V1-his [1] (EC50) was put at 0.062 nM. Compared with the last molecule, the EC50 is about 2.4-fold lower.

B10: humanized antibody mab14-h3 (antibody, human IgG4 S228P, kappa, V domains shown)
VH: QVQLVQSGAEVKKPGASVKVSCKASGYNFNIYWINWVRQAPGQGLEWMGNIYPSSISTNYNEKFKTRATLTVDTSTSTVYMELSSLRSEDTAVYYCARSEGTYYGGRYEGDWFGYWGQGTLVTVSS
VL: DIQMTQSPSSLSASVGDRVTITCRASQDIRNYLNWYQQKPGGTVKLLIYFTSTLHSGVPSRFSGSGSGTDYTLTISSLQPEDFATYYCQQGNTLPWTFGGGTKVEIKR
notes: hIgG4, κ
The molecule B10 yielded an EC50 with human Sirpα-V1-his [1] of 0.103 nM.

B11: humanized antibody mab14-h12 (antibody, human IgG4 S228P, kappa, V domains shown)
VH: QVQLVQSGAEVKKPGASVKVSCKASGYNFNIYWINWVRQAPGQGLEWIGNIYPSSISTNYNEKFKTRATLTVDKSTSTVYMELSSLRSEDTAVYYCARSEGTYYGGRYEGDWFGYWGQGTLVTVSS
VL: DIQMTQSPSSLSASVGDRVTITCRASQDIRNYLNWYQQKPGGTPKLLIYFTSTLHSGVPSRFSGSGSGTDFTLTISSLQPEDFATYYCQQGNTLPWTFGGGTKVEIKR
notes: hIgG4, κ
Regarding B11, the IC50 with human Sirpα-V1-hFc worked out at 3.49 nM; with human Sirpα-V1-his [2], 8.08 nM. For the same molecule, it took 0.092 nM to reach a half-maximal effect with human Sirpα-V1-his [1] (EC50).

B12: humanized antibody mab14-h7 (antibody, human IgG4 S228P, kappa, V domains shown)
VH: QVQLVQSGAEVKKPGASVKVSCKASGYNFNIYWINWVKQAPGQGLEWIGNIYPSSISTNYNEKFKTKATLTVDTSTSTVYMELSSLRSEDTAVYYCARSEGTYYGGRYEGDWFGYWGQGTLVTVSS
VL: DIQMTQSPSSLSASVGDRVTITCRASQDIRNYLNWYQQKPGGTVKLLIYFTSTLHSGVPSRFSGSGSGTDYTLTISSLQPEDFATYYCQQGNTLPWTFGGGTKVEIKR
notes: hIgG4, κ
In the assay with human Sirpα-V1-his [1], B12 displayed a concentration for a half-maximal effect (EC50) of 0.081 nM.

B13: humanized antibody mab14-h6 (antibody, human IgG4 S228P, kappa, V domains shown)
VH: QVQLVQSGAEVKKPGASVKVSCKASGYNFNIYWINWVKQAPGQGLEWIGNIYPSSISTNYNEKFKTRATLTVDTSTSTVYMELSSLRSEDTAVYYCARSEGTYYGGRYEGDWFGYWGQGTLVTVSS
VL: DIQMTQSPSSLSASVGDRVTITCRASQDIRNYLNWYQQKPGGTVKLLIYFTSTLHSGVPSRFSGSGSGTDYTLTISSLQPEDFATYYCQQGNTLPWTFGGGTKVEIKR
notes: hIgG4, κ
B13 yielded an EC50 in the assay with human Sirpα-V1-his [1] of 0.095 nM.

B14: humanized antibody mab14-h4 (antibody, human IgG4 S228P, kappa, V domains shown)
VH: QVQLVQSGAEVKKPGASVKVSCKASGYNFNIYWINWVRQAPGQGLEWIGNIYPSSISTNYNEKFKTRATLTVDTSTSTVYMELSSLRSEDTAVYYCARSEGTYYGGRYEGDWFGYWGQGTLVTVSS
VL: DIQMTQSPSSLSASVGDRVTITCRASQDIRNYLNWYQQKPGGTVKLLIYFTSTLHSGVPSRFSGSGSGTDYTLTISSLQPEDFATYYCQQGNTLPWTFGGGTKVEIKR
notes: hIgG4, κ
Consider B14, for which the concentration giving a half-maximal response (EC50) with human Sirpα-V1-his [1] is 0.088 nM.

B15: humanized antibody mab14-h5 (antibody, human IgG4 S228P, kappa, V domains shown)
VH: QVQLVQSGAEVKKPGASVKVSCKASGYNFNIYWINWVRQAPGQGLEWIGNIYPSSISTNYNEKFKTRATLTVDKSTSTVYMELSSLRSEDTAVYYCARSEGTYYGGRYEGDWFGYWGQGTLVTVSS
VL: DIQMTQSPSSLSASVGDRVTITCRASQDIRNYLNWYQQKPGGTVKLLIYFTSTLHSGVPSRFSGSGSGTDYTLTISSLQPEDFATYYCQQGNTLPWTFGGGTKVEIKR
notes: hIgG4, κ
On to B15, for which the IC50 in the assay with human Sirpα-V1-hFc was 8.99 nM; in the assay with human Sirpα-V1-his [2], 8.47 nM. Besides, in the assay with human Sirpα-V1-his [1], the concentration giving a half-maximal response (EC50) was found to be 0.061 nM.
